Reference: patent US20150005237A1 (UNIVERSIT T INNSBRUCK, published 2015)

B1: Gαi3 fused to Venus YFP PCA fragment F[1] (other, UniProt Q9DC51 1-354, looked up)
chain: MGCTLSAEDKAAVERSKMIDRNLREDGEKAAKEVKLLLLGAGESGKSTIVKQMKIIHEDGYSEDECKQYKVVVYSNTIQSIIAIIRAMGRLKIDFGESARADDARQLFVLAGSAEEGVMTSELAGVIKRLWRDGGVQACFSRSREYQLNDSASYYLNDLDRISQTNYIPTQQDVLRTRVKTTGIVETHFTFKELYFKMFDVGGQRSERKKWIHCFEGVTAIIFCVALSDYDLVLAEDEEMNRMHESMKLFDSICNNKWFTDTSIILFLNKKDLFEEKIKRSPLTICYPEYTGSNTYEEAAAYIQCQFEDLNRRKDTKEVYTHFTCATDTKNVQFVFDAVTDVIIKNNLKECGLY
notes: Prey fused to F[1]; also called Gαi isoform 3 prey; not shown: Venus variant of yellow fluorescent protein (YFP), N-terminal fragment F[1], amino acids 1-158
B2: Phosphoinositide-dependent kinase 1 (PDK1) fused to Venus YFP PCA fragment F[1] (enzyme, UniProt Q9Z2A0 1-559, looked up)
chain: MARTTSQLYDAVPIQSSVVLCSCPSPSMVRSQTEPGSSPGIPSGVSRQGSTMDGTTAEARPSTNPLQQHPAQLPPQPRKKRPEDFKFGKILGEGSFSTVVLARELATSREYAIKILEKRHIIKENKVPYVTRERDVMSRLDHPFFVKLYFTFQDDEKLYFGLSYAKNGELLKYIRKIGSFDETCTRFYTAEIVSALEYLHGKGIIHRDLKPENILLNEDMHIQITDFGTAKVLSPESKQARANSFVGTAQYVSPELLTEKSACKSSDLWALGCIIYQLVAGLPPFRAGNEYLIFQKIIKLEYHFPEKFFPKARDLVEKLLVLDATKRLGCEEMEGYGPLKAHPFFETITWENLHQQTPPKLTAYLPAMSEDDEDCYGNYDNLLSQFGFMQVSSSSSSHSLSTVETSLPQRSGSNIEQYIHDLDTNSFELDLQFSEDEKRLLLEKQAGGNPWHQFVENNLILKMGPVDKRKGLFARRRQLLLTEGPHLYYVDPVNKVLKGEIPWSQELRPEAKNFKTFFVHTPNRTYYLMDPSGNAHKWCRKIQEVWRQQYQSNPDAAVQ
notes: Prey fused to F[1]; not shown: Venus variant of yellow fluorescent protein (YFP), N-terminal fragment F[1], amino acids 1-158
B3: Gαi2 fused to Venus YFP PCA fragment F[1] (other, UniProt P08752 1-355, looked up)
chain: MGCTVSAEDKAAAERSKMIDKNLREDGEKAAREVKLLLLGAGESGKSTIVKQMKIIHEDGYSEEECRQYRAVVYSNTIQSIMAIVKAMGNLQIDFADPQRADDARQLFALSCAAEEQGMLPEDLSGVIRRLWADHGVQACFGRSREYQLNDSAAYYLNDLERIAQSDYIPTQQDVLRTRVKTTGIVETHFTFKDLHFKMFDVGGQRSERKKWIHCFEGVTAIIFCVALSAYDLVLAEDEEMNRMHESMKLFDSICNNKWFTDTSIILFLNKKDLFEEKITQSSLTICFPEYTGANKYDEAASYIQSKFEDLNKRKDTKEIYTHFTCATDTKNVQFVFDAVTDVIIKNNLKDCGLF
notes: Prey fused to F[1]; also called Gαi isoform 2 prey; not shown: Venus variant of yellow fluorescent protein (YFP), N-terminal fragment F[1], amino acids 1-158

How the values were obtained:
[1] = target: T1, PKA regulatory subunit RIIβ (rat, type IIβ) fused to Venus YFP PCA fragment F[2] (rat, UniProt P12369 1-416); test: Venus YFP protein-fragment complementation assay in COS7 cells
T1 construct: Expressed in COS7 or HEK293 cells from pcDNA3.1; also called RIIβ-F[2]; RegIIβ; not shown: Venus variant of yellow fluorescent protein (YFP), C-terminal fragment F[2], amino acids 159-239
T1 sequence (P12369 other isoform, or with tags, fused parts or gaps): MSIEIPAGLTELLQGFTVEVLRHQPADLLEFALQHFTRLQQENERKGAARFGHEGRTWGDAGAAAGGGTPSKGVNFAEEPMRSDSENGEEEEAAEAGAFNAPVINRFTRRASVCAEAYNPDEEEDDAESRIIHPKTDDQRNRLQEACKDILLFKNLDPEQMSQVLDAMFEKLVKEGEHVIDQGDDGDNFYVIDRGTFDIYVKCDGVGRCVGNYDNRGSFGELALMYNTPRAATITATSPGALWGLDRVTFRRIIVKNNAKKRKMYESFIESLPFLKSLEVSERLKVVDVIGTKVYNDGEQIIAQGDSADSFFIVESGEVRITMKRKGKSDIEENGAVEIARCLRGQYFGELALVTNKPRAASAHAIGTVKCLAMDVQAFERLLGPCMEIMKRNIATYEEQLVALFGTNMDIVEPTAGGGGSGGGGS

[2] = target: T2, PKA catalytic subunit (mouse, type α, PKAc) fused to Venus YFP PCA fragment F[2] (mouse, UniProt P05132 1-351); test: as above
[3] = target: T2, PKA catalytic subunit (mouse, type α, …); test: Venus YFP protein-fragment complementation assay in cells

Row | Binder | binding result [1] | binding result [2] | binding result [3]
1 | B1 | binds | no binding | –
2 | B2 | – | – | binds
3 | B3 | binds | no binding | –
